Test results published in patent publication US20210047394A1 (Hoffmann-La Roche, published 2021).

Columns and labels:
[1] = biological target: T1, full-length Angiopoietin-2-His protein (R&D Systems #623-AN/CF or in house produced material) (human, UniProt O15123 19-496, limits assumed); experiment: ANG-2 binding ELISA, coated ANG-2
T1 construct: also called human ANG-2; ANG-2-His; not shown: His tag
T1 sequence: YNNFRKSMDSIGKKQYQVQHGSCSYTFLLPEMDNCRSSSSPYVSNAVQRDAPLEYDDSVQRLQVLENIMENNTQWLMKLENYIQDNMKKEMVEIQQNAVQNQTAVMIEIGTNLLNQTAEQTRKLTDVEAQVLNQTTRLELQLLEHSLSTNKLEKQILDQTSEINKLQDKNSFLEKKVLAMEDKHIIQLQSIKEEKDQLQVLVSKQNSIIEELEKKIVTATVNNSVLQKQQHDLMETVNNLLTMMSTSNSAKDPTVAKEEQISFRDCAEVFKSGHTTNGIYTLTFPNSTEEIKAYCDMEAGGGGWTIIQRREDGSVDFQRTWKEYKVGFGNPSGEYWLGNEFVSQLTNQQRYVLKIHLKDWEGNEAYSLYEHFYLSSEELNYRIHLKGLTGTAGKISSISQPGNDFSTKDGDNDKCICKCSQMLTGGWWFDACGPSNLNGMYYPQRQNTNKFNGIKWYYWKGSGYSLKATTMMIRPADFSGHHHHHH

[2] = biological target: T2, Angiopoietin-1-His (R&D systems #923-AN) (human, UniProt Q15389 20-498, limits assumed); experiment: ANG-1 binding ELISA, coated ANG-1
T2 construct: also called human ANG-1; hANG-1; not shown: His tag
T2 sequence: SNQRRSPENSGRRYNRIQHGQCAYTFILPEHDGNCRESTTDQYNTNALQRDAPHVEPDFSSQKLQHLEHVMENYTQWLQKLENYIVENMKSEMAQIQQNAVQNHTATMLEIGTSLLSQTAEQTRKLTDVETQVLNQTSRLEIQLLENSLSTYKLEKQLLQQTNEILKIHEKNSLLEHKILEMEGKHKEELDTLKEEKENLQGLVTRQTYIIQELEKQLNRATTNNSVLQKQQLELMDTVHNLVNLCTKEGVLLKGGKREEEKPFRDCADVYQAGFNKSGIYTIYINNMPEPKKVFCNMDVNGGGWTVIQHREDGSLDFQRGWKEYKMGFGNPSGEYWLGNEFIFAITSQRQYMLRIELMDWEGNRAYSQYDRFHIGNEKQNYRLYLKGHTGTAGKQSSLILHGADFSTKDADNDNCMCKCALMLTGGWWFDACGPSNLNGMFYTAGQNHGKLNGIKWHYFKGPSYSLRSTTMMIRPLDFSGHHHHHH

[3] = biological target: T1, full-length Angiopoietin-2-His protein …; experiment: cell-based or functional assay
[4] = biological target: T3, rhVEGF (R&D Systems Cat. No. 293-VE) (human, UniProt P15692 181-395); experiment: SPR (Biacore), hVEGF affinity
T3 construct: Analyte in the Biacore assays; also called VEGF-A

[5] = biological target: T3, rhVEGF (R&D Systems Cat. No. 293-VE); experiment: SPR (Biacore T100), antibody captured via anti-human IgG, rhVEGF analyte, 37 C
[6] = biological target: T1, full-length Angiopoietin-2-His protein …; experiment: SPR (Biacore), antibody captured by secondary antibody, ANG-2 analyte; KD only a relative estimation
[7] = biological target: T4, full-length VEGF165-His protein (R&D Systems) (human, UniProt P15692 181-395); experiment: VEGF binding ELISA, coated VEGF165
T4 construct: also called recombinant human VEGF165; VEGF-A; not shown: His tag

[8] = biological target: T1, full-length Angiopoietin-2-His protein …; experiment: SPR (Biacore T100), antibody captured via anti-hIgG-Fc, ANG-2-His analyte, 25 C; relative estimation
[9] = biological target: T1, full-length Angiopoietin-2-His protein …; experiment: inhibition of huANG-2 binding to coated Tie-2 (ELISA)
[10] = biological target: T3, rhVEGF (R&D Systems Cat. No. 293-VE); experiment: SPR (Biacore), antibody on captured Ang-2, then rhVEGF

T3 sequence (P15692 other isoform, or with tags, fused parts or gaps limits assumed): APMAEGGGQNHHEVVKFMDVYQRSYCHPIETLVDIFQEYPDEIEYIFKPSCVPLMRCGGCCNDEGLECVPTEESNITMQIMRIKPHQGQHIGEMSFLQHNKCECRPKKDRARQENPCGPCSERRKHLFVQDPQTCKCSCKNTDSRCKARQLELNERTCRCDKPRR
T4 sequence (P15692 other isoform, or with tags, fused parts or gaps): as the sequence (P15692 other isoform, or with tags, fused parts or gaps limits assumed) above

B1: <ANG-2>Ang2i_LC07 (antibody, V domains shown)
VH: not shown
VL: QPVLTQSPSVSVAPGETARVACGGNFIGGKSVHWYQQKPGQAPVLVIYDDSERPSGIPERISGSNSGNTATLIITRAEAGDEADYHCQVWDSDSDQGVFGTGTKLTVLG
notes: Parent monospecific antibody
Which results are given for B1?
EC50 [1]: 3.01 µg/mL; EC50 [2]: > 8 µg/mL

B2: <ANG-2>Ang2i_LC06 (antibody, V domains shown)
VH: not shown
VL: QPGLTQPPSVSVAPGQTARITCGGNNIGSKSVHWYQQKPGQAPVLVVYDDSDRPSGIPERFSGSNSGNTATLTISRVEAGDEADYYCQVWDSSSDHYVFGTGTKVTVLG
notes: Parent monospecific antibody
B2 was tested. Which “IC50, ANGPT2 stimulated Tie2 phosphorylation (HEK293-Tie2 cells), first experiment” value [3] did it give?
The value was ~508 ng/mL.

And the “IC50, ANGPT2 stimulated Tie2 phosphorylation (HEK293-Tie2 cells), second experiment” value [3]?
The value was ~424 ng/mL.

And the EC50 [1]?
The EC50 was 0.084 µg/mL.

What about the EC50 [2] of the same binder?
The EC50 was > 8 µg/mL.

B3: Bevacizumab-LC06-VH-VL (bispecific antibody, human IgG1, kappa)
heavy 1: not shown
heavy 2: not shown
light 1: QPGLTQPPSVSVAPGQTARITCGGNNIGSKSVHWYQQKPGQAPVLVVYDDSDRPSGIPERFSGSNSGNTATLTISRVEAGDEADYYCQVWDSSSDHYVFGTGTKVTVLRTVAAPSVFIFPPSDEQLKSGTASVVCLLNNFYPREAKVQWKVDNALQSGNSQESVTEQDSKDSTYSLSSTLTLSKADYEKHKVYACEVTHQGLSSPVTKSFNRGEC
light 2: EVQLVESGGGLVQPGGSLRLSCAASGYTFTNYGMNWVRQAPGKGLEWVGWINTYTGEPTYAADFKRRFTFSLDTSKSTAYLQMNSLRAEDTAVYYCAKYPHYYGSSHWYFDVWGQGTLVTVSSASVAAPSVFIFPPSDEQLKSGTASVVCLLNNFYPREAKVQWKVDNALQSGNSQESVTEQDSKDSTYSLSSTLTLSKADYEKHKVYACEVTHQGLSSPVTKSFNRGEC
notes: Bispecific, bivalent domain exchanged antibody (VH-VL exchange); also called Bevacizumab-LC06-CM-VH-VL
For B3, which Kd [4] is on record?
Its Kd is 0.1 nM.

B4: Bevacizumab-LC06-VH-VL-SS (bispecific antibody, human IgG1, kappa)
heavy 1: not shown
heavy 2: not shown
light 1: QPGLTQPPSVSVAPGQTARITCGGNNIGSKSVHWYQQKPGQAPVLVVYDDSDRPSGIPERFSGSNSGNTATLTISRVEAGDEADYYCQVWDSSSDHYVFGCGTKVTVLRTVAAPSVFIFPPSDEQLKSGTASVVCLLNNFYPREAKVQWKVDNALQSGNSQESVTEQDSKDSTYSLSSTLTLSKADYEKHKVYACEVTHQGLSSPVTKSFNRGEC
light 2: EVQLVESGGGLVQPGGSLRLSCAASGYTFTNYGMNWVRQAPGKGLEWVGWINTYTGEPTYAADFKRRFTFSLDTSKSTAYLQMNSLRAEDTAVYYCAKYPHYYGSSHWYFDVWGQGTLVTVSSASVAAPSVFIFPPSDEQLKSGTASVVCLLNNFYPREAKVQWKVDNALQSGNSQESVTEQDSKDSTYSLSSTLTLSKADYEKHKVYACEVTHQGLSSPVTKSFNRGEC
notes: Bispecific, bivalent domain exchanged antibody (VH-VL exchange and an additional VH44 VL100 disulfide bridge)
For B4, which Kd [4] is on record?
The Kd was 0.1 nM.

B5: <ANG-2> Ang2k_LC08 (antibody, V domains shown)
VH: QVQLVESGGGVVQPGGSLRLSCAASGFTFSSYGMHWVRQAPGKGLEWVAVISYDGSNKYYADSVKGRFTISRDNSKNTLYLQMNSLRAEDTAVYYCAKPTLDIYMGYYYGMDVWGQGTTVTVSS
VL: QPVLTQPPSASGAPGQRVTISCSGFASNIGSNSVNWYQQVPGTAPKLLIYNNDQRPSGVPDRFSGSRSGTSASLAISGLQSEDEADYYCAAWDDSLNGPVFGGGTKLTVLG
notes: Parent monospecific antibody; also called <ANG-2>Ang2i-LC08
How did the “IC50, ANGPT2 stimulated Tie2 phosphorylation (HEK293-Tie2 cells), first experiment” value [3] turn out when B5 was run?
Its value is ~499 ng/mL.

What about the “IC50, ANGPT2 stimulated Tie2 phosphorylation (HEK293-Tie2 cells), second experiment” value [3] of the same binder?
Its value is ~399 ng/mL.

And the EC50 [1]?
Its EC50 is 0.105 µg/mL.

What about the EC50 [2] of the same binder?
The EC50 was 4.04 µg/mL.

B6: disulfide-stabilized <VEGF-ANG-2> TvAb6 (bispecific antibody, IgG1)
heavy (part 1 of 2): EVQLVESGGGLVQPGGSLRLSCAASGFTISDYWIHWVRQAPGKGLEWVAGITPAGGYTYYADSVKGRFTISADTSKNTAYLQMNSLRAEDTAVYYCARFVFFLPYAMDYWGQGTLVTVSS
heavy (part 2 of 2): not shown
light: DIQMTQSPSSLSASVGDRVTITCRASQDVSTAVAWYQQKPGKAPKLLIYSASFLYSGVPSRFSGSGSGTDFTLTISSLQPEDFATYYCQQGYGNPFTFGQGTKVEIK
notes: Tetravalent: full-length IgG1 G6-31 with a VH44/VL100 disulfide-stabilized Mab536 scFv at the C-terminus of each heavy chain; also called TvAb6 (2331); No. 2331; not shown: IgG1 heavy chain constant region; light chain constant region
With B6 as the binder, how does the Kd [5] read?
The Kd was 1.53 pM.

What about the koff [5] of the same binder?
The koff was 7.24e-06 s⁻¹.

And the kon [5]?
The kon was 4.72e+06 M⁻¹ s⁻¹.

And the t1/2 [5]?
The t1/2 was 1600 min.

And the Kd [6]?
The Kd was 4.4 nM.

B7: <ANG-2> Mab536 (antibody, V domains shown)
VH: EVQLVQSGGGVVQPGRSLRLSCAASGFTFSSYGMHWVRQAPGKGLEWVSYISSSGSTIYYADSVKGRFTISRDNAKNSLYLQMNSLRAEDTAVYYCARDLLDYDILTGYGYWGQGTLVTVSS
VL: not shown
notes: monospecific 'standard' IgG1 antibody; also called Mab536 (1000)
B7 was tested. Which EC50 [1] did it give?
Its EC50 is 0.133 µg/mL.

What about the Kd [6] of the same binder?
The Kd was 1.6 nM.

Does B7 bind [7]?
Result: no binding

And the EC50 [2]?
The EC50 was 2.54 µg/mL.

And the Kd [8]?
Its Kd is 3 nM.

And the IC50 [9]?
The IC50 was 0.015 µg/mL.

Does B7 bind [10]?
Result: no binding (tested: 150 nM VEGF)
